The Human Domainome abundance scans (Beltran et al. 2025)

B1: REST corepressor 3, residues 87 to 134; numbered along this chain, Q9P2K3 (parent)
chain: DEWTVEDKVLFEQAFSFHGKSFHRIQQMLPDKTIASLVKYYYSWKKTR
B2: Tyrosine-protein kinase Lck, residues 63 to 120; numbered along this chain, P06239 (parent)
chain: DNLVIALHSYEPSHDGDLGFEKGEQLRILEQSGEWWKAQSLTTGQEGFIPFNFVAKAN

Variants of: B1
Test: abundance fitness (aPCA) (normalised: wild type 0, dead -1); higher = more abundant; growth selection in yeast, the domain comes from the species named
Conditions: Homo sapiens

Abundance fitness, by site and new letter:
Y41: G -0.836, W -0.574, R -0.654, K -0.398, H -0.52, A -0.817, E -0.491, V -0.657, F -0.644, I -0.599
R48: E 0.016, L 0.326, G 0.024
K39: W -0.67, Y -0.193
S43: G -0.154, R 0.021, T -0.312, V -0.076, M -0.547, W -0.327, N -0.172, F -0.577, L -0.49, A -0.128, D 0.162, E -0.084, K 0.134, C -0.027
Y40: E -0.318, G -1.09, P -0.324, V -0.824, R -0.964, C -0.674, K -0.346
Y42: W 0.056, C -0.132, M 0.311, Q -0.117, F -0.555, G -0.036, I -0.11, H -0.236, P -0.821, T 0.103, R 0.234, N 0.216, A -0.234, D 0.252, L 0.015, E 0.203, S 0.102, V 0.02
W44: F 0.414, D 0.738, L -0.329, V -1, S -0.548, T -0.394, K -0.393, R -0.541, A -0.78, G -0.649
K46: W -0.729, P -0.782, T -0.756, A -0.053, H 0.242, G -0.202, E -0.575, F -0.54, S -0.467, L -0.645, V -0.399
T47: S -0.463, R -0.071, L -0.408, A -0.672, E -0.493, V -0.752, P -0.075, I -0.623, W -0.542, Q -0.979
K45: R -0.087, I -0.424, A -0.336, G -0.69, W -0.61, C -0.616, M 0.081, L -0.597, F -0.493, V -0.454, Y 0.357, S -0.143, N 0.014, Q -0.102, E -0.546

Variants of: B2
Test: as above
Conditions: Homo sapiens

Abundance fitness of substitutions, site by site:
L3: N -0.159, H -0.486, I 0.091, V -0.212, P -0.74, F -0.304, T -0.019, Y -0.113, W -0.232, M -0.094, S -0.343, R -0.178, D -0.503, Q -0.122, A -0.79, G -0.768, C -0.273
N2: Y -0.243, D -0.193, M -0.075, Q -0.174, F 0.034, P -0.713, W -0.526, T -0.157, E -0.541, S -0.128, V -0.851, C -0.309, G -0.428, L -0.185, I -0.094, H 0.146, R -0.32
I5: M -0.26
A6: N -0.956, C -0.217, H -0.756, E -0.857, G -0.212, I -0.772, D -0.907, K -0.933, F -0.907, P -0.897, M -0.637, L -0.845
V4: M -0.173, R -0.29, T -0.325, L -0.04, A 0.123, H -0.073, N -0.727, G -0.431, F -0.054
D1: M -0.334, G -0.115, N -0.115, V -0.519, A -0.337, W -0.331, P -0.827, L -0.487, T -0.335, E -0.036, Y -0.224
